The source of these data is publication PMC11503464, “Copper-61 is an advantageous alternative to gallium-68 for PET imaging of somatostatin receptor-expressing tumors: a head-to-head comparative preclinical study” (Frontiers in Nuclear Medicine, 2024).

Series [1] is classed as physicochemical. Conditions: pH 7.4. Here is the method: Briefly, the radiotracer (10 µl, 1 µM) was added to 1 ml of a 1:1 pre-saturated mixture of 1-octanol and phosphate-buffered saline (PBS pH 7.4). The solution was vortexed for 30 min and then centrifuged at 3,000 rpm to achieve phase separation. Aliquots of 0.1 ml from each phase were collected and measured in a γ-counter. The distribution coefficient was calculated as the average of the logarithmic values (n = 3) of the ratio between the radioactivity in the organic and PBS phases. [^68Ga]Ga-DOTA-TOC was used as a reference.

The test system of series [2] is HEK-SST2 xenografts. The settings on record: female, athymic nude-Foxn1^nu/Foxn1^+, mouse, in vivo, 200 pmol, 1 h.
The subject of series [3] is HEK-SST2 xenografts. Description: PET/CT in vivo specificity (DOTA-TOC pre-injection) in HEK-SST2 xenografts. Also noted: species or system mice. Conditions: PET/CT 1 h p.i. Here is the method: The mice were anesthetized with 1.5% isoflurane and dynamic PET scans were acquired from 0 to 1 h post-injection (p.i.). The mice were euthanized by CO2 at 4 h p.i., their bladders were mechanically emptied, and static PET scans were acquired for 30 min. […] The PET images were acquired in list mode using a small-animal PET scanner (β-CUBE, Molecubes, Ghent, Belgium) with a spatial resolution of 0.85 mm and an axial field-of-view of 13 cm. All PET scans were decay corrected and reconstructed into a 192 × 192 × 384 matrix by an ordered subsets maximization expectation (OSEM) algorithm using 30 iterations, a voxel size of 400 µm × 400 µm × 400 µm, and15 min per frame. Computed tomography (CT) data was used to apply attenuation correction on the PET data. The CT was imaged supine, headfirst, using the nanoSPECT/CT™ scanner (Bioscan Inc.). Topograms and helical CT scans of the whole mouse were first acquired using the following parameters: x-ray tube current: 177 µA, x-ray tube voltage 45 kVp, 90 s, and 180 frames per rotation, pitch 1. […] The specificity of the ^61Cu-labeled tracers was assessed in HEK-SST2 xenografts by administering DOTA-TOC (100 µl/200 nmol) 2–5 min pre-injection, followed by the injection of the radiotracer (100 µl/200 pmol/4 MBq). […]

Series [4] deals with HEK-SST2 cells. Put plainly: Efflux from HEK-SST2 cells. It is filed as cell-based, human. Here is the method:
The efflux was studied after 1 h incubation of the cells with the radiotracer at 37°C and the removal of the unbound fraction and the cell membrane-bound fraction, as described above (acid-wash). The cells were then incubated with fresh medium at 37°C either alone or with a competitor (1,000-fold excess of DOTA-TOC, 2.5 µM/well) for 10, 20, 30, 45, 60, 90, 120, 150, 180, and 240 min. At each time point, the efflux (or retention) was measured after the removal of the medium without or with the competitor and replacement with fresh pre-warmed (37°C) medium alone or with the competitor. At the end of the experiment, the cells were detached using 1 M NaOH at 37°C and collected to determine the remaining cell-associated radiotracer.

A short description of series [5]: Stability of labeling solutions at room temperature by radio-HPLC. Conditions: labeling solution stored at room temperature. It is filed as physicochemical. The protocol:
An aliquot of DOTA-TOC or NODAGA-TOC (3–6 nmol, 1 mg/ml in TraceSelect water) was diluted in 0.25–0.30 ml ammonium acetate (0.5 M, pH 8), followed by the addition of [^61Cu]CuCl2 (30–150 MBq). The reaction mixture was incubated for 15 min at 95°C (DOTA-TOC) or at room temperature (NODAGA-TOC). The pH of the reaction mixture was between 5 and 6. Quality control was performed on a Shimadzu 2020 HPLC system connected to a Berthold radio detector (Flow Star 513).

The subject of series [6] is HEK-SST2 cells. Description: Cellular uptake and distribution on intact HEK-SST2 cells. It counts as cell-based, human. The settings on record: specific uptake, after 4 h at 37°C. Here is the method:
At the defined time points, the medium was removed, and the cells were washed twice with ice-cold PBS. The cells were then treated twice for 5 min with ice-cold glycine solution (0.05 M, pH 2.8) to detach the cell membrane-bound fraction (acid released). Afterward, the cells containing the internalized fraction were detached using NaOH 1 M at 37°C and collected for measurement. [^68Ga]Ga-DOTA-TOC was evaluated as a reference.

The conditions of series [7]: in vivo; cited from earlier work.
The conditions of series [8]: mouse, in vivo; cited from earlier work.

As to `C[C@@H](O)[C@@H]1NC(=O)[C@H](CCCCN)NC(=O)[C@@H](Cc2c[nH]c3ccccc23)NC(=O)[C@H](Cc2ccc(O)cc2)NC(=O)[C@@H](NC(=O)[C@@H](Cc2ccccc2)NC(=O)CN2CCN(CC(=O)O)CCN(CC(=O)O)CCN(CC(=O)O)CC2)CSSC[C@@H](C(=O)N[C@H](CO)[C@@H](C)O)NC1=O` [[^61Cu]Cu-DOTA-TOC] [metal not drawn], the “log D(O/PBS pH 7.4)” value in series [1] is −2.81 ± 0.29. Besides, in the series with HEK-SST2 xenografts [2], the Heart uptake is reported as 0.63 ± 0.07 %IA/g, the Intestine uptake is listed as 2.94 ± 0.15 %IA/g and the Liver uptake came to 3.59 ± 0.49 %IA/g. In addition, the “Abdominal uptake (liver and intestine) after high excess DOTA-TOC pre-injection” value in the series on HEK-SST2 xenografts [3] is reported as “not suppressed”. Moreover, the “Efflux plateau in the absence of a competitor” value in the series with HEK-SST2 cells [4] (after 2 h, 37°C, no further increase at 4 h) is given as “approximately 40%”. The Efflux with competitor with HEK-SST2 cells [4] (after 4 h at 37°C, DOTA-TOC (competitor) added to the medium) was 80%. The “Radiochemical purity (%) 2 h” value in series [5] (2 h after end of synthesis) is listed as 96 ± 1%. Also, in series [5] (4 h after end of synthesis), the “Radiochemical purity (%) 4 h” value was determined as 95 ± 1%. Besides, in the series with HEK-SST2 cells [6], the “Cellular uptake (surface bound + internalized)” value is 78.3 ± 1.3%.

On to `C[C@@H](O)[C@@H]1NC(=O)[C@H](CCCCN)NC(=O)[C@@H](Cc2c[nH]c3ccccc23)NC(=O)[C@H](Cc2ccc(O)cc2)NC(=O)[C@@H](NC(=O)[C@@H](Cc2ccccc2)NC(=O)CN2CCN(CC(=O)O)CCN(CC(=O)O)CCN(CC(=O)O)CC2)CSSC[C@@H](C(=O)N[C@H](CO)[C@@H](C)O)NC1=O` [[^68Ga]Ga-DOTA-TOC] [[^68Ga]Ga-DOTA-Tyr^3-octreotide, metal not drawn], for which, in series [1], the “log D(O/PBS pH 7.4)” value is given as −3.18 ± 0.11. In addition, in the series with HEK-SST2 xenografts [2], the Adrenal uptake was 2.57 ± 0.78 %IA/g, the Blood uptake was 0.63 ± 0.09 %IA/g, the Bone uptake is 0.49 ± 0.07 %IA/g and the Heart uptake came to 0.27 ± 0.03 %IA/g. Moreover, in the series with HEK-SST2 xenografts [2], the Intestine uptake turned out to be 1.39 ± 0.28 %IA/g, the Kidneys uptake is on record as 8.37 ± 0.84 %IA/g, the Liver uptake is recorded as 0.58 ± 0.07 %IA/g and the Lung uptake was 1.68 ± 0.32 %IA/g. In the series on HEK-SST2 xenografts [2], this molecule registered a Pancreas uptake of 4.77 ± 1.16 %IA/g, a Pituitary uptake of 3.29 ± 0.63 %IA/g, an SST2-tumor uptake of 6.64 ± 1.11 %IA/g and a Stomach uptake of 3.73 ± 0.36 %IA/g. In addition, the “Cellular uptake (surface bound + internalized)” value in the series on HEK-SST2 cells [6] was 79.0 ± 3.1%. The Effective dose in series [7] was 0.021-0.0257 mSv/MBq.

In the case of “[^68Ga]Ga-DOTA-Tyr^3-octreotate [[^68Ga]Ga-DOTA-TATE]”, in series [8], the Kidney dose is on record as 9.01 × 10^−2 mGy/MBq and the Total-body absorbed dose is 1.27 × 10^−3 mGy/MBq. Further, the Effective dose in series [7] is listed as 0.021-0.0257 mSv/MBq.
